Values belong to the binder of their own block, whether it stands above or below them.
Target: T1, Mmm1-SOG (miniSOG fused to the cytosolic face of Mmm1) (S. cerevisiae), P41800
T1 chain: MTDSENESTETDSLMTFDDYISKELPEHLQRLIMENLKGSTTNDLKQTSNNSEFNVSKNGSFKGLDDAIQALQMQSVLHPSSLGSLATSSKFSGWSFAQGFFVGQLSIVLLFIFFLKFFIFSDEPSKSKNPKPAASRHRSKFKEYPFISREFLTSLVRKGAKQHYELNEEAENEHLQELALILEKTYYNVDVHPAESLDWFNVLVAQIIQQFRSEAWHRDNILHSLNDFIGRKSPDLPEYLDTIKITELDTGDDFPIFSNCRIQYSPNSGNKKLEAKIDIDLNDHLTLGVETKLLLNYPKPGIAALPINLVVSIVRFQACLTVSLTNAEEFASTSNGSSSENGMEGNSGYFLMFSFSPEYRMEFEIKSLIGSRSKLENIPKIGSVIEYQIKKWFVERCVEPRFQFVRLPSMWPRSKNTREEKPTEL
Test: singlet oxygen triplet energy transfer
Details: remark: other sources report otherwise

STET signal: 0.082 s⁻¹
B1: Mdm34-SOS (IFP1.4 fused to the cytosolic face of Mdm34), P53083 1-459 (natural protein)
chain: MSFRFNEAVFGDNSFNERIREKLSTALNSPSKKKLDILKSGIKVQKVDFPTIPQLEILDLDIITQPKSLAKGICKISCKDAMLRIQTVIESNLLLINEQDTPSFTMPQLINNGSFTIPITMTFSSIELEAITNIFVKNPGIGISFNDVDLDFKFDCSVKILQSTIERRLKESMHVVFKDVLPSLIFNTSQNWFTNRGESTSTIPGKREHHHQQTTMSRNVILDGSDFQELSPINMLRLSSIVSSRSTLSLHSTVMNSLSAIPGCLERQNLYRFISRMPSLNNYYSSQSFPQPKSSTVSSKQLVKPFYCSHNLLPKTVLDSSQYDLATITKIQSRLFDRSNSNDDNAKPRRRKIKCKKTRTPSNLQSQGEQAVDDSTAIETVTSTPVQTPIPELEEQSPPYLKTTVSIRDKYVIPEKISLNLDSKKDTSKKKPFYFIGLNSQEPSNNWKWGMEDSPPPYH

STET signal: 0.052 s⁻¹
B2: SOS-Mdm34 (IFP1.4 fused to the N-terminus of Mdm34, facing the intermembrane space), P53083 1-459 (natural protein)
chain: B1 chain
